Data reported in patent US20240360238A1 (MAGENTA THERAPEUTICS, published 2024).
Residue numbers refer to the chain shown, from its start.

Tests used:
[1] = target: CD117 on Kasumi-1 cells and primary human CD34+ bone marrow cells (human, UniProt P10721 26-976); assay: cell-based or functional assay
[2] = target: T1, purified human CD117 ectodomain (R&D Systems #332-SR) (human, UniProt P10721 26-524); assay: BLI (Octet Red96), IgG1 on anti-human Fc sensor, 33.3 and 11 nM ectodomain, 1:1 fit
T1 construct: extracellular domain; Bought protein; also called c-kit; purified recombinant human CD117 ectodomain

[3] = target: T1, purified human CD117 ectodomain (R&D …); assay: BLI; kdis compared to HC-1/LC-1 (Ab1)
[4] = target: T1, purified human CD117 ectodomain (R&D …); assay: BLI, IgG on anti-human Fc sensor, 33 and 11 nM ectodomain;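 also: Kd, kon and koff are apparent values, with Kd reported as the apparent monovalent affinity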
[5] = target: T1, purified human CD117 ectodomain (R&D …); assay: BLI (Octet Red96), IgG on anti-human Fc sensor, 33.3 and 11 nM ectodomain
[6] = target: T1, purified human CD117 ectodomain (R&D …); assay: BLI, purified IgG on sensor, soluble ectodomain; apparent monovalent

T1 sequence (P10721 26-524): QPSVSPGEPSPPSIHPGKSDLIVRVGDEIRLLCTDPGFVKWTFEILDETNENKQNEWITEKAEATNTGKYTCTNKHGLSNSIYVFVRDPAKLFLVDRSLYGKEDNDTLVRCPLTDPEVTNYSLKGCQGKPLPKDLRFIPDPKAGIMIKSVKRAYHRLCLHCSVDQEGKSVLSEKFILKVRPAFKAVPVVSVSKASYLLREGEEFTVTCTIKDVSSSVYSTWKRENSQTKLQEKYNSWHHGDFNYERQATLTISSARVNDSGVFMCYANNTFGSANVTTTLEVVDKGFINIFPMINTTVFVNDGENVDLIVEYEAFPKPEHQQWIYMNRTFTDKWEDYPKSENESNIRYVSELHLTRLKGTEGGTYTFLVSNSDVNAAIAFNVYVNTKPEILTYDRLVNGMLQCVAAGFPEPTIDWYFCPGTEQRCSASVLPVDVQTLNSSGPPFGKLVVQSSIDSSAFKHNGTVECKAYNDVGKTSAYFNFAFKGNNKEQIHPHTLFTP
Chain of CD117 on Kasumi-1 cells and primary human CD34+ bone marrow cells (P10721 26-976): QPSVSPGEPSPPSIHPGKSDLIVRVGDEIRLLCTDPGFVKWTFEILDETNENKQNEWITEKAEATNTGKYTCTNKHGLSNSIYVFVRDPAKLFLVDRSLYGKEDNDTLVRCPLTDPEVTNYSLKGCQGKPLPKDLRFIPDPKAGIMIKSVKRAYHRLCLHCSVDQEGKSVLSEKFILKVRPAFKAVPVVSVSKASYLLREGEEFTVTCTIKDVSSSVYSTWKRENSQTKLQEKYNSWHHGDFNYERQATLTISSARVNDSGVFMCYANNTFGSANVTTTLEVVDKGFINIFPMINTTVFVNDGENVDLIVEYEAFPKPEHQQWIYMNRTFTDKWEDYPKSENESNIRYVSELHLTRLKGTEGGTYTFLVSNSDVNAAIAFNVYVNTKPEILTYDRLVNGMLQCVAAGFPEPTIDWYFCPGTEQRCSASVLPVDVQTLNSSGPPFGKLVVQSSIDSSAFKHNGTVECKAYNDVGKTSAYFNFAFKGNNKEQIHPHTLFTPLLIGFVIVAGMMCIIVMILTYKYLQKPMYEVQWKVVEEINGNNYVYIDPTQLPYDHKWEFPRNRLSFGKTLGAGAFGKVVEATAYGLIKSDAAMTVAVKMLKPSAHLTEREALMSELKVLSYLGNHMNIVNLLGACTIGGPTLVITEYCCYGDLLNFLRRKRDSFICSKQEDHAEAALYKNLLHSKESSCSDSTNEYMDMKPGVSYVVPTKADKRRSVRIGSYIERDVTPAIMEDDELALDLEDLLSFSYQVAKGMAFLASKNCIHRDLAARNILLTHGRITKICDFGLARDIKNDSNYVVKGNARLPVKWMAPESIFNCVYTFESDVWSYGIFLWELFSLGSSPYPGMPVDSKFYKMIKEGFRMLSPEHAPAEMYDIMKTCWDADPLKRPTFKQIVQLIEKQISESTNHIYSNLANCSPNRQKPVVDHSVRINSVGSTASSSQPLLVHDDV

B1: HC-77/LC-77 anti-CD117-ADC (conjugated to an amatoxin) (antibody, V domains shown)
VH: QVQLVQSGAAVKKPGESLKISCKGSGYRFTTYWIGWVRQMPGKGLEWMGIIYPGDSDTRYSPSFQGQVTISAGKSISTAYLQWSSLKASDTAMYYCARHGRGYNGYEGAFDIWGQGTMVTVSS
VL: DIQLTQSPSSLSASVGDRVTITCRASQGVISALAWYQQKPGKAPKLLIYDASILESGVPSRFSGSGSGTDFTLTISSLQPEDFATYYCQQFNSYPLTFGGGTKVEIK
modifications: antibody conjugated to an amatoxin; site not stated
- % efficacy, killing of primary human CD34+CD90+ cells [1]: 54.4%
- IC50, killing of primary human CD34+CD90+ cells (5 days, flow cytometry counts) [1]: 6.94 pM

B2: HC-79/LC-79 anti-CD117-ADC (conjugated to an amatoxin) (antibody, V domains shown)
VH: B1 VH
VL: B1 VL with I30G
modifications: antibody conjugated to an amatoxin; site not stated
- % efficacy, killing of primary human CD34+CD90+ cells [1]: 63.4%
- IC50, killing of primary human CD34+CD90+ cells (5 days, flow cytometry counts) [1]: 7.09 pM

B3: HC-81/LC-81 anti-CD117-ADC (conjugated to an amatoxin) (antibody, V domains shown)
VH: B1 VH
VL: B1 VL with I53T
modifications: antibody conjugated to an amatoxin; site not stated
- % efficacy, killing of primary human CD34+CD90+ cells [1]: 68.7%
- IC50, killing of primary human CD34+CD90+ cells (5 days, flow cytometry counts) [1]: 3.77 pM

B4: HC-245/LC-245 anti-CD117-ADC (conjugated to an amatoxin) (antibody, V domains shown)
VH: B1 VH with Q1E, A10E, Y32S, G73D, R101L, M118L
VL: B1 VL with L4M, V29I, I30G, I53T, S93G, G100Q, K103R, V104L
modifications: antibody conjugated to an amatoxin; site not stated
- % efficacy, killing of primary human CD34+CD90+ cells [1]: 76.4%
- IC50, killing of primary human CD34+CD90+ cells (5 days, flow cytometry counts) [1]: 5.78 pM

B5: HC-246/LC-246 anti-CD117-ADC (conjugated to an amatoxin) (antibody, V domains shown)
VH: B1 VH
VL: B1 VL with L4M, V29I, I30G, I53T, S93G, G100Q, K103R, V104L
modifications: antibody conjugated to an amatoxin; site not stated
- % efficacy, killing of primary human CD34+CD90+ cells [1]: 67.8%
- IC50, killing of primary human CD34+CD90+ cells (5 days, flow cytometry counts) [1]: 4.53 pM

B6: HC-247/LC-247 anti-CD117-ADC (conjugated to an amatoxin) (antibody, V domains shown)
VH: B1 VH
VL: DIQMTQSPSSLSASVGDRVTITCRASRGISDYLAWYQQKPGKAPKLLIYDASNLETGVPSRFSGSGSGTDFTLTISSLQPEDFATYYCQQANSFPITFGQGTRLEIK
modifications: antibody conjugated to an amatoxin; site not stated
- % efficacy, killing of primary human CD34+CD90+ cells [1]: 55.4%
- IC50, killing of primary human CD34+CD90+ cells (5 days, flow cytometry counts) [1]: 8.37 pM

B7: HC-248/LC-248 anti-CD117-ADC (conjugated to an amatoxin) (antibody, V domains shown)
VH: B1 VH with Q1E, A10E, Y32S, G73D, R101L, M118L
VL: B1 VL with L4M, V29I, I30G, I53T, F91L, S93G, G100Q, K103R, V104L
modifications: antibody conjugated to an amatoxin; site not stated
- % efficacy, killing of primary human CD34+CD90+ cells [1]: 47.8%
- IC50, killing of primary human CD34+CD90+ cells (5 days, flow cytometry counts) [1]: 6.46 pM

B8: HC-79/LC-79 (Ab79) (antibody, IgG1, V domains shown)
VH: B1 VH
VL: B1 VL with I30G
notes: Purified human antibody tested as an IgG1; hIgG1/hKappa; also called Antibody 79
- Kd [2]: 1520 pM
- koff [2]: 0.000478 s⁻¹
- kon [2]: 316000 M⁻¹ s⁻¹
- Fold improvement (off-rate) [3]: 4.7 fold
- Kd [4]: 1520 pM
- koff [4]: 0.000478 s⁻¹
- kon [4]: 316000 M⁻¹ s⁻¹

B9: HC-1/LC-1 (Ab1) (antibody, IgG1, V domains shown)
VH: B1 VH
VL: B1 VL with D1A, I30S, I53S
notes: Purified IgG (IgG1); also called 001; CK6 derivative Ab1
- Kd [5]: 4090 pM
- koff [5]: 0.00227 s⁻¹
- kon [5]: 556000 M⁻¹ s⁻¹
- Kd [6]: 2810 pM
- koff [6]: 0.000848 s⁻¹
- kon [6]: 302000 M⁻¹ s⁻¹
- Kd [2]: 3100 pM
- koff [2]: 0.0013 s⁻¹
- kon [2]: 420000 M⁻¹ s⁻¹
- Kd [4]: 4090 pM
- koff [4]: 0.00227 s⁻¹
- kon [4]: 556000 M⁻¹ s⁻¹

B10: HC-77/LC-77 (Ab77) (antibody, IgG1, V domains shown)
VH: B1 VH
VL: B1 VL
notes: Purified human antibody tested as an IgG1; hIgG1/hKappa; also called Antibody 77
- Kd [2]: 684 pM
- koff [2]: 0.000215 s⁻¹
- kon [2]: 315000 M⁻¹ s⁻¹
- Fold improvement (off-rate) [3]: 10.5 fold
- Kd [4]: 684 pM
- koff [4]: 0.000215 s⁻¹
- kon [4]: 315000 M⁻¹ s⁻¹

B11: HC-81/LC-81 (Ab81) (antibody, IgG1, V domains shown)
VH: B1 VH
VL: B1 VL with I53T
notes: Purified human antibody tested as an IgG1; hIgG1/hKappa; also called Antibody 81
- Kd [2]: 877 pM
- koff [2]: 0.000252 s⁻¹
- kon [2]: 288000 M⁻¹ s⁻¹
- Fold improvement (off-rate) [3]: 9 fold
- Kd [4]: 877 pM
- koff [4]: 0.000252 s⁻¹
- kon [4]: 288000 M⁻¹ s⁻¹
